According to the supplement of paper PMC10567573:
± gives the standard deviation.

Assay: protein stability index of a GFP-peptide fusion (GPS, HEK-293T) (PSI 1-6); higher = more stable
[1] = treatment: DMSO, c terminus: a fixed tail appended
[2] = treatment: MLN4924 1 uM, 8 h, c terminus: a fixed tail appended
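Note: 24-mer peptide tiles fused after GFP, lentivirally expressed, FACS-sorted into six equal bins by GFP/DsRed ratio, decoded by Illumina sequencing, PSI is the read-weighted mean bin number.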

Sequence	protein stability index [1]	protein stability index [2]	protein stability index (treatment: DMSO, c terminus: native)	protein stability index (treatment: MLN4924 1 uM, 8 h, c terminus: native)
HELMLRFKDEYKSENIKLREENEK [CCDC89]	5.21 ± 0.36	5.29 ± 0.13	–	–
AHRGRLNIQAGINENDFYDGAWCA [CPXM2]	3.34 ± 0.86	3.29 ± 0.46	–	–
LRPQVVTDDDGQAPEAKDGSSFSG [APMAP]	5.22 ± 0.26	5.31 ± 0.15	–	–
PGSSSGPVLGSSSGAGHGSGSGSG [SPAG8]	4.87 ± 0.29	5.14 ± 0.18	–	–
ILQLEECCTHNNSATLSWKQPPLS [TRIM9]	2.67 ± 0.42	2.78 ± 0.23	–	–
SFRKFRYGYNNVVTIPAGATHILV [ADAMTS4]	2.64 ± 0.28	2.99 ± 0.51	–	–
QALLDVKNIAHQNKFGEDMPHPH [HDAC6]	–	–	4.99 ± 0.18	5.08 ± 0.12
AFDYIKQRRSMVSPNFGFMGQLLQ [DUSP5]	2.14 ± 0.25	2.27 ± 0.39	–	–
DFSRCDMDGATLCNCALEELRLVF [ELF3]	2.37 ± 0.15	2.11 ± 0.32	–	–
LRLENSSLFSQALKDEEAKVLQLT [CCDC89]	3.6 ± 0.41	3.62 ± 0.61	–	–
LAFKNDIQFWNSRQSLEGLSVRSV [CLPTM1]	2.45 ± 0.18	2.5 ± 0.14	–	–
SALGRQRLQDISSLPLPQSLKNYL [SPSB4]	2.85 ± 0.11	3.27 ± 0.6	–	–
KLASHTRDTTGVSQMFPSSKARTK [FBF1]	4.39 ± 0.16	4.58 ± 0.053	–	–
EVDGLRGTNEALLRQLRELEEQFA [PRPH]	4.35 ± 0.17	4.32 ± 0.26	–	–
PEKIGTRFLLYTNENPNNFQILLL [PNLIPRP1]	2.26 ± 0.46	2.48 ± 0.46	–	–
DEEEDFFLRGPSGPRFGPRNDKIK [VAMP4]	4.53 ± 0.26	4.62 ± 0.26	–	–
CIRLWKYALDMQQSNLEPLSPMTA [FEM1A]	2.52 ± 0.54	2.34 ± 0.35	–	–
ENLIMFQNLANEEVRKLTQRLEEM [MATN2]	3.58 ± 0.094	3.17 ± 0.47	–	–
QWTVGKLNCPFCGARLGGFNFVST [RNF180]	2.46 ± 0.39	2.65 ± 0.54	–	–
YQSGGRLKRPVNVPFDIFTEEVKF [KCNA4]	2.42 ± 0.26	2.8 ± 0.57	–	–
SEDVNWGYEKRNLARVPKLDLKRQ [CHGB]	4.34 ± 0.3	4.27 ± 0.25	–	–
INRLVGLQNTYMGYLDYRKKAIKD [GLT8D2]	2.7 ± 0.3	3.01 ± 0.05	–	–

Sequence	protein stability index [1]	protein stability index [2]	protein stability index (treatment: DMSO, c terminus: native)	protein stability index (treatment: MLN4924 1 uM, 8 h, c terminus: native)
ILKLEQENCTLVTTFRGHTGGVTA [WDFY2]	2.79 ± 0.13	3.51 ± 0.5	–	–
ATTAATAAATTTTTTSAATATTAP [SNAP91]	5.36 ± 0.22	5.52 ± 0.22	–	–
PKEQLSTSFQWVTKWVDYSNKYGF [PLK2]	2.29 ± 0.45	2.46 ± 0.48	–	–
LVTQQLPHLMPSNCGLEEKIANLG [S100A14]	2.43 ± 0.68	3.05 ± 0.55	–	–
TSEKLGEWNEKVTQSDLYKKTQET [TPD52L2]	5.13 ± 0.28	5.1 ± 0.063	–	–
TMNRRVCVLMLLAAWIGGFLHSLV [OR4A15]	2.53 ± 0.36	2.18 ± 0.24	–	–
DLDPLELIALANRFCLPHLVALAE [RHOBTB1]	2.5 ± 0.11	2.14 ± 0.2	–	–
SACTVALHIFQLNEDGPSSENLEE [TRIP13]	3.23 ± 0.2	3.33 ± 0.19	–	–
SLHVDDRERMELLEEAKKMEMAKF [RIPK4]	4.92 ± 0.42	4.76 ± 0.15	–	–
RDNGHSNRDEHSSRGYRNHRSSRE [RBMY1A1]	5.1 ± 0.074	5.24 ± 0.088	–	–
VRTAAIKAMLQLHERGLKLHQTIY [INTS4]	2.58 ± 0.35	2.44 ± 0.33	–	–
KGDKCKFSHDLTLERKCEKRSVYI [ZC3H15]	2.74 ± 0.22	2.63 ± 0.067	–	–
DTYNDMATLFFNPQESAILQLFHQ [CLCN6]	2.6 ± 0.34	2.43 ± 0.21	–	–
FLEEAHEWNQKRARKAMRNGISPI [N4BP2L1]	3.1 ± 0.29	3.18 ± 0.34	–	–
ELNDRFANFIEKVRFLEQQNAALR [PRPH]	2.39 ± 0.21	2.71 ± 0.33	–	–
LGHMFMYFLRGSLPWQGLKADTLK [CSNK1G3]	2.06 ± 0.26	2.57 ± 0.98	–	–
PSPAPAVAAAAAATTAATAAATTT [SNAP91]	5.33 ± 0.31	5.39 ± 0.17	–	–
ISDRYSPELRQLVLSLLSLEPAQR [NEK8]	2.66 ± 0.38	2.3 ± 0.39	–	–
MMHGRSYSLASGAGGGGSKGNSLK [RAB40C]	4.32 ± 0.061	4.51 ± 0.15	–	–
RMLMKRLDVTVQSFGWSDRAKVKT [FAM98B]	2.48 ± 0.34	2.34 ± 0.34	–	–
LTEHQRIHTGIKPHQCSECGRAFS [ZNF649]	3.58 ± 0.064	3.69 ± 0.38	–	–
LAIKAITSSAKVDMTFEEEAQLLQ [FKBP8]	2.95 ± 0.19	3.29 ± 0.34	–	–

Sequence	protein stability index [1]	protein stability index [2]	protein stability index (treatment: DMSO, c terminus: native)	protein stability index (treatment: MLN4924 1 uM, 8 h, c terminus: native)
ATKSHVDKVIMKLGKTNAKAVSEM [DYNC2LI1]	3.57 ± 0.21	3.51 ± 0.3	–	–
LFGGFTTDKQPLSDAWTYCISKNE [KLHDC2]	2.63 ± 0.47	2.75 ± 0.28	–	–
SELEDLTEPEQRELKTKLTKLEAE [TPD52L3]	5.31 ± 0.45	5.6 ± 0.15	–	–
CYSSRPLLCWSVWWALSTCGYFQV [SLC19A2]	2.53 ± 0.19	3.55 ± 0.31	–	–
PANLYVRELREVRRVPPRFSIPPT [PTPRD]	2.95 ± 0.2	3.05 ± 0.41	–	–
DEKQCKQCANKVLQHMKAVQADQE [LRRC59]	4.78 ± 0.19	4.63 ± 0.22	–	–
AKSRAEAALEEESRQRQSRMEKGE [SMARCE1]	5.55 ± 0.22	5.38 ± 0.22	–	–
ASLSNQECQLYPRRSQQQQVPVVD [SNURF]	4.57 ± 0.14	4.46 ± 0.24	–	–
AYTRYLGDLSGGQVLKKIAQKALD [HMOX1]	2.29 ± 0.19	2.23 ± 0.34	–	–
KSALGAMGQWQLEVGDPAPLGAGN [DPCD]	3.98 ± 0.21	3.96 ± 0.27	–	–
FLSEEEYWKLQIFFTNVIQALGEH [CCNC]	2.42 ± 0.96	2.36 ± 0.084	–	–
AREGSSEPWLPLTDGRSPRRSRDP [PLEKHN1]	5.17 ± 0.43	5.1 ± 0.098	–	–
PEGSVSGSQPNSGLALESSSGLQD [NFE2L1]	5.46 ± 0.2	5.51 ± 0.13	–	–
NFDNPWNFQNIPKETELPFPKQIL [MIA2]	2.74 ± 0.27	2.9 ± 0.4	–	–
EERVETTVTSLKTKVGGTNPNGGS [TPD52L1]	5.11 ± 0.28	5.19 ± 0.21	–	–
NVEDEAETKKVLGLQDTITAELVV [PALM]	4.3 ± 0.28	4.25 ± 0.18	–	–
LPSLGCRTSCSSRPCVPPSCHGYT [KRT34]	2.32 ± 0.26	2.2 ± 0.11	–	–
AKPRATWTLKLDGNLQLDCLAQGW [RTP4]	2.17 ± 0.24	2.33 ± 0.57	–	–
PSLPSCLCSFLLLLLLQVSSSYAG [MOG]	2.44 ± 0.048	2.77 ± 0.34	–	–
FIPSLKYVQWSLPFIVFGATGLTS [SLC22A15]	3.14 ± 0.22	3.33 ± 0.36	–	–
PAPAFQPFFFTGAFPFNMQELVLK [ANKRD40]	2.07 ± 0.82	2.77 ± 1.2	–	–
